{"source": "the DeepSol protein solubility set", "data": [{"assay": "soluble on expression in E. coli; label from the status in PepcDB or PDB records", "values": [{"sequence": "MSLADTYRPEISVAGFIPLPDCGRQVYNFNPGWRFFKGDIRGAEAVNFDDRSWEVVSTPHTVELMPAEGSGCRNYQGPAWYRKHFVVPTATKGQRVLLHFEAAMGKQVLYLNGKRVQEHLGGYLPFTLDLTANGVQAGDSCLLAVYTDNSNDKSYPPGKPQYTLDFAYHGGIYRDVWMIAKSPVAITDAIDSRTVGGGGVFVHFDKISEKSAQVYVETEIQNDNTRSESVTIETTLTDAEGNVIKRTSGKLSLNSGEKKSIRQQMEVRNPKLWSPDAPYLYRVQSRIKKGNRSIDGGTTRIGIRLAEFRGKEGFWLNGKPFGQLVGANRHQDFAYVGNALPNSQQWRDAKRLRDAGCTIIRVAHYPQDPSFMDACDELGLFVIVATPGWQYWNKDPKFGELVHQNTREMIRRDRNHPSVLMWEPILNETRYPLDFALKALEITKEEYPYPGRPIAAADVHSAGVKEHYDVVYGWPGDDEKEDKPEQCIFTREFGENVDDWYAHNNNNRASRSWGERPLLIQALSLAKSYDEMYRTTGQFIGGTQWHPFDHQRGYHPDPYWGGIYDAFRQKKYAYEMFRSQSPASLQHPLAECGPMIFLAHEMSQFSDKDVVVFSNCDSIRLSIYDGTKTWTKPVVHAKGHMPNAPVIFENVWDFWEARGYSYTQKNWQKVNMVAEGIIDGKVVCTQKKMPSRRSTKLRLYADTQKVNLVADGSDFIVVVAEVTDDSGNVRRLAKENIVFTVEGEGEIIGDARIGANPRAVEFGSAPLLIRSTRKAGKIKVKAHVQFEGTQAPTAAEMEFESVPAELPFCYDEKEGHHHHHH", "soluble on expression in E. coli": "soluble"}, {"sequence": "MSLAENSLKIWNWSYYIDEALLDEFAAHAGIPRENIVYDEYDDPNVVLSRLEAGKSGYDVVIIPDYILDVAIKEGLLMELNKSLIPNYPHLDEKFKSTPYDPEGRYSAVYMWGTTGFGYRSDLAEKVTTLRQIFDPDYGYLKKYSKKITMLEEPIEVILACKAFLGKSVDDWSDETMQEVKEALIRQKPYLAAYAGANVYVEGLKNGSIYVAHAYNGDIVRLQDEEGVDQASFAIPEEGGTIWTDNMCIPKDAENVELAHEFINFMLDPEVSGRNSDYIKYASPVKEARNYVSEEVLENPAVYVPEDLMKKLWFTPQLDEEARRKIENLMIEVKASTEGHHHHHH", "soluble on expression in E. coli": "soluble"}, {"sequence": "MSLAESQLSKLDVNLQSLNPYTFSKTRCIVNLHISDDTKNRDPSTTNGSYSNSQLLSNGEHVCYHFSQDYCVLSIYPVTDAITGKTVVVHLPHETFNDHHTFTMAEEDGCIVMDLILKTGLFLTLRFSLEYLFNRNADINSSWYSLLKPYDFTVRLPDYLYKVNSALSIVYLNDGGLLGLQKTQTSGSDEYDLHPVLFNDNSYFQSFTRFFSHNDSGRENVVSSVSYGDYHLLTLTENCKLRIWDLRTNSVTAQLNLITDPQDKHRKYESIGPYLALLDSVLVVFLPFGNGAFRTFQLSVNNSGGLVLTPRGELIRTNLSTASIWSLVDTKLTKPFELNIETSYLQMVVLWKSNTSIKLQILNFETEALDKHSWVEASNKSLPDILDNDILGDNFEQSLLDLKAHYTPAIYEEAQRILSANGIIFVPSQQNNDEYLSNLESILKDLKKHHDEPSSLTLYNGEVVMVNTLYLYNHFVYKINSKLESFYYNLTSEGHHHHHH", "soluble on expression in E. coli": "soluble"}, {"sequence": "MSLAETFWVDVQRAEGRPLNLELIAPLSVGSKSVEEVENVAIRVELTNGCVGWGEVPVFPSVTAVNHTVALAKAMEACEFLSCSSPMVLSLVLSEIGGILPGPELASVRAGVEMALIDAVANSIDVPLWRLFGGVANTLTTGVTLPTVFPAEAYSQGASKYCQSGFRTFKLKIGKNTSAEIKALQAIQAAHPLCSLILDANEAYTCQEAIEILQKLYDSGITPAVLEQPVHRSDWKGLGEVSNFAREKKYGISVAVDETCQSLIEVRRVIKENLADAINIKLAKFGVMGALEIIELARESGVKLMISGTVESRLATGFAAHLAAGLGCFKSVVLDMPFLLSEDPVICGYEASGPVYKFLNVRGQGGFLKWDFSSWEGHHHHHH", "soluble on expression in E. coli": "soluble"}, {"sequence": "MSLAEVAEVSEQDFGEILAQTRQFVRTAVVPREQEILDGDRVPDDLRDQARKMGLFGYAIPQQWGGLGLNLMQDVELAMELGYTSLALRSMFGTNNGIAGQVLVGFGTEAQKARWLEPMAAGDVVASFALTEPGAGSNPAGLRTKAVADGDNWVISGQKRFITNAPVADLFVVFARTRPADDQGPGIAVFLVPADAAGVQVGAKDAKMGQEGAWTADVSFDDVRVGGDALIGGSENIGYRAAMTSLARGRVHIAALAVGAAQRALDESVSYAATATQGGTPIGNFQLVQAMLADQQTEVLAGRALVREAARLWVTGEDRRVAPSAAKLYCTEMAGRVADLAVQVHGGSGYMRGVPVERIYRDVRLLRLYEGTSEIQRLIIGSNLVKAAQREGHHHHHH", "soluble on expression in E. coli": "soluble"}, {"sequence": "MSLAFKPARVIFEQDALKYPMGEKLYRFFRDKGTDVSFAASHNRVSAIPGRTRSEKYFEAKRTLVVGVRRTTAFETCKPSAHFQLPLATSCPGKCEYCYLLTNMGKKPYVRIYVNIEEILSAARGYIEDRKPQVTVFEGAATSDPVPVEPYTGALARAVEFFGGQEYGRFRFVTKFTEVDTLLDVPHNGHTRFRFSINTPEVIRRFEHATPPLAERLAAAWKVAAAGYPLGFLVAPIIMYDGWRDSYRDLFKTAAAGLNGKVYDLTFEFITHRFTKRAKGTILEVFPSTRLDMDEEARAFKFGQFGYGKYVYPKELFSDAKIYFEGLAGEYFPGSKVEYFVEGHHHHHH", "soluble on expression in E. coli": "not soluble"}, {"sequence": "MSLAGDDAVNLTLVTGAPANGGSCVAHHEGRVVFVRYALPGERVRARVTAQRGSYWHAEAFEVIDPSPDRIGSLCSIAGADGAGCCDLAFAAPEAARTLKAQVVANQLERLGRHSWQGEAQPLSDAGPTGWRIRVRLDVGADRRPGFHRYHSGELVTDLDCGQLPVGMLDGLVAADWPPEAQLYVALDDDGERHVVCSVRQGPRNRTRTVTNVVEGAYHAHQRVHRRSWRVPVTAFWQAHRDAAAVYSDLIADWAQPAPGMTAWDLYGGAGVFAAVLGEAVGESGRVLTVDTSRLASGAARAALVDLPQVEVVTGSVRRVLAVQPAGADLAVLDPPRSGAGREVVDLLAGAGVPRLIHIGCEAASFARDIGLYRGHGYAVEKIKVFDAFPLTHYVECVALLTRKVEGHHHHHH", "soluble on expression in E. coli": "soluble"}, {"sequence": "MSLAHGIPSQGKVTITVDEYSSNPTQAFTHYNINQSRFQPPHVHMVDPIPYDTPKPAGHTRFVCISDTHSRTDGIQMPYGDILLHTGDFTELGLPSEVKKFNDWLGNLPYEYKIVIAGNHELTFDKEFMADLVKQDYYRFPSVSKLKPEDFDNVQSLLTNSIYLQDSEVTVKGFRIYGAPWTPWFNGWGFNLPRGQSLLDKWNLIPEGIDILMTHGPPLGFRDWVPKELQRVGCVELLNTVQRRVRPKLHVFGGIHEGYGIMTDGYTTYINASTCTVSFQPTNPPIIFDLPNPQGSEGHHHHHH", "soluble on expression in E. coli": "soluble"}, {"sequence": "MSLAKISKIEAQKRKGRYNIYLDGKYAFPVAESVLIQFRLMKGTELDEKQIAAIATADQQAKAYSRMLDYLSYQMRTESDIVKKLKEIDTPEEFVEPILKKLRGQQLIDDHAYAASYVRTMINTDLKGPGIIRQHLRQKGIGESDIDDALTQFTPEVQAELAKKLALKLFRRYRNQPERRREQKVQQGLTTKGFSSSVYEMIKDEVVPQPDLEQENDLLAKEAAKQWRRVRRYQGYEREQHFKQTMYRKGFDLDDVQSWLDAQDEGHHHHHH", "soluble on expression in E. coli": "soluble"}, {"sequence": "MSLAKKNYILVIDDDVMMSQTISDFIHGKGYHVIVCNNLEEAFSELSQYKIDLILINFWQPDGTALILLEHLNEEKITTPVIVISNTKEHQSVLECFRMGVLDFVVKPINLEIFWYKVECLLTRVKLQHEVKLQRVELEKMLYEKAREEKMARNLFEHLVNIDNTQFEFVRTFCQASANFSGDIILKGLAPNGNFFLMPEFNSEVRHSTIKQLIGEEGHHHHHH", "soluble on expression in E. coli": "soluble"}, {"sequence": "MSLAKVLYITAHPFNELVSNSMAAGKAFIETYQQQHPDDEVKHIDLFETYIPVIDKDVLTGWGKMSNGETLTDDEQMKVSRLSDILEEFLSADKYVFVTPMWNLSFPPVVKAYIDAISIAGKTFKYSAEGPQGLLTDKKVLHIQSRGGYYTEGPAADFEMGDRYLRTIMTFLGVPSYETIIIEGHNAEPHKTEEIKATSINNAEKLATTFEGGSHHHHHH", "soluble on expression in E. coli": "soluble"}, {"sequence": "MSLALAIFDLDETLIHGDCATLWSEQMGRLGWVDSESFMRRNHELMDAYSHGKLAMEEFMDFSLEPMSGRTPEEVAHLVEPWVEEVIEPIIFSDACKAIAAHRQAGDRILVISASGTHLVKPIAARLGIDEVLGIELEVQHGVYSGRTVGTLTYREGKITRLLQWLDAEEENLEGATFYSDSRNDLPLLLRVDHPQVVNPDPVLREHAQKAGWPIHHWKEGHHHHHH", "soluble on expression in E. coli": "soluble"}, {"sequence": "MSLALSTEQKTKMWAMLNQTRGQIGLTAYKDYIFGILFYKYLSEKATHWLNGVLRGENWENVYSQDSVKALNYMKKNLGYAIQPNEFFVDWKKAIDTDRFNIGMMTDTFTHFNQQIAFEAKNDFEGIFDGMRFDSADLGANAQARASVMISMIELLSSPEFDLSGSNDTVSDIYEYLVAQFATVLASDMGQYYTPKEISNVMARILTFGREDMEKFSIFDPTVGSGSLLLTTASYMKNSGRRGVIKYYGQEKDATPYRLSRMNLMMHGIEYNDININHADTLESDWPDGVVDGKDTPRMFDAVMANPPYSAHWNNKDREDDPRWREYGVSPKTKADYAFLLHCLYHLEDNGRMAIILPHGVLFRGASEGRIRKALIDKHQIEAIIGFPDKLFLNTSIPVCVVILRKNRIESDILFVDASKGFEKIKKQNNLRSEDVEKIVDTVINRKEIEKYSHVATLDEIKENDYNLNIPRYVDTFEEEEAIDLVALGNEMVTLNADIKKAETDFLGLLDELAVTPDTKEIIEATKAVFREGHHHHHH", "soluble on expression in E. coli": "soluble"}, {"sequence": "MSLANFVHEGDLPDGVFADAEIIAIDSETMGLRLRRDPLCVVQLSAGDGDAHVVRLSRPDYDCPNLKALLTNPKVLKLFHFGRFDIAMFELHLGVVTAPVYCTKIASKLARTYTDRHGLKDVTRELLGVELSKVQQSSDWGAPSLSVDQVAYAASDVLHLHGLRLKLNAMLEREGRMALAQHAFDYLPHRASLDLAGWEEMDIFAHSEGHHHHHH", "soluble on expression in E. coli": "soluble"}, {"sequence": "MSLAPALKAEILAQALPYIRKFHGKTIVIKYGGNAMTEEKLKHGFARDVILLKLVGMNPVVVHGGGPQIDDALKKVGKTGTFIQGMRVTDEETMEVVEWVLGGEVQQDIVMLINQYGGQAVGLTGKDGGLIRAKKLKMPDREQPGQFIDIGFVGDIETINPAVVRALQDDAFIPVISPIGFSDDGQAYNINADVVAGKMAEILKAEKLVMMTNIPGVMDKQGNLLTDLSAREIDELFADGTISGGMLPKISSALDAAKSGVNSVHIIDGRIEHSLLLEILTEQAFGTMIRSHEGHHHHHH", "soluble on expression in E. coli": "not soluble"}, {"sequence": "MSLAPINPYPLLQACQRQRVSDGAIAPVLAGTESSDRLLVLIWPQLGDFDSLEYAQWLQREQDQIQQLGLTIRAVGIGDRDSGQRFCEFTGFPADQLFVDPTASLHQELELYPGLQLSIPGFSPAAKAWLNLLLMCAGIGSPGTLAEVLRGYRGDRSAPQLIAAEETVQAAPLPPIKGNFFNLAGGSGFQRPMELATLRLRNMAESLGHWRTYVPDTSYMTQRGGTFLFDRDRQLIYEHRDHGILGFSATMNRPLSFLDNLPTPSTASEGHHHHHH", "soluble on expression in E. coli": "soluble"}, {"sequence": "MSLAQSIVVVAEPSHSDLYDLLAVGNAGIRLVSAAGLSTAIGPSDPDIVILDSGTDADGGITLLGEIKALRNDLPVIFLTDSSSEEIVLKAFRKGAREYFRKPVDLHVLQHAVETILALRRMQRERRDPLKRHYSDPINLPDDLPESIGRAVMHIKSNYDCALYLDDLARAAHLSKFHFCRNFKKYIGVSPMRFMNMVKISKAETLLRRADLTISTVAYKLGFNDPSEFTRQFKSITGISPSAFRRSCLSEGHHHHHH", "soluble on expression in E. coli": "not soluble"}]}]}
